# Data: patent US20050053923A1
# Columns and labels:
# [1] = target: recombinant NS1 (rNS1), construct not stated; test: sandwich ELISA: coated mAb 3.1112G captures rNS1, rabbit anti-WNV-NS1 polyclonal detection
# [2] = target: Semi-purified recombinant West Nile virus NS1 with 8-His tag (West Nile virus) (UniProt Q9Q6P4); test: as above
# Sequence of UniProt Q9Q6P4 (Q9Q6P4 799-1144, tags or fused parts left off): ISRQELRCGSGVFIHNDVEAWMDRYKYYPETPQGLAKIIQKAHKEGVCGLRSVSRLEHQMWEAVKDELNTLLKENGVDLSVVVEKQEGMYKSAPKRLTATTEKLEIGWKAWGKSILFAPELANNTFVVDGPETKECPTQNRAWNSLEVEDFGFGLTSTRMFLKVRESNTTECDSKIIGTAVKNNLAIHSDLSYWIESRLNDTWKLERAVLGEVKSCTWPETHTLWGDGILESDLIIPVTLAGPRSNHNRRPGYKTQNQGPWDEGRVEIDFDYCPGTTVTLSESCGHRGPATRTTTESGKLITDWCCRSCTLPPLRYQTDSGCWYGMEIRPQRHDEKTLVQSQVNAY
substance,measurement,setting,value
"monoclonal antibody against Kunjin NS1 (3.1112G, Chemicon International)",O.D.,[1],0.577 O.D. 450 nm
same,O.D.,[2],0.887 O.D. 450 nm
